Source: the RNAGym collection of RNA variant scans (doi:10.7554/elife.80360)

B1: Hairpin Ribozyme (parent)
chain: GUCCUCUUUCACGUGCGCGUGAAAGAGAGAAGUGAACCAGAGAAACACACGUUGUGGUAUAUUACCUGGUA

Variants of: B1
Assay: self-cleavage, relative activity (ratio to wild type); higher = more cleavage; co-transcriptional

Variant	self-cleavage
G42U A59U	0.151
G42U A59G	0.172
A43U C50U	0.116
A43U C50G	0.107
A45C U52A	0.0823
A44C A49U	0.0612
G42U C65U	0.12
A43G G56A	0.0841
A45C G69A	0.116
A45U U60C	0.112
A43C U62A	0.12
C46A A47U	0.199
C46A A47G	0.133
G42C U53A	0.332
A45U U63A	0.148
A45U U63G	0.0513
A44U A59C	0.173
A45C G56U	0.203
C46G G51C	0.0873
C46G G51U	0.164
C46G G51A	0.154
A43C G68C	0
A45C A64G	0.259
A43U A49U	0.27

Variant	self-cleavage
A44C U55G	0.102
A44C U55C	0.172
A45U C65A	0.131
A43G A45G	0.104
A43G A45C	0.142
A43G U53A	0.152
A43G U53C	0.107
A44U C48U	0.15
A44U A49G	0.0827
A44U A49U	0.109
A45G C65G	0.168
A45G C65A	0.349
A45G C65U	0.146
A45C U58A	0.309
A45C U58G	0.3
A44G A45C	0.252
A44U U70G	0.201
A43U U63C	0.219
A43U U63A	0.107
A45U	0.14
A45G	0.177
A45C	0.154
A43C G69U	0.161
A43C G69A	0.105

Variant	self-cleavage
A43C G69C	0.196
G42C U63C	0.148
A44C U53C	0.108
A44C U53A	0.186
G42C U55A	0.169
G42C U55C	0.158
G42C U55G	0.173
A44U U67C	0.099
A44U U67G	0.102
A44U U67A	0.143
G42U U63A	0.195
C46A U67A	0.122
C46G C50A	0.0593
C46G C50G	0.217
A45U G69A	0.111
A44C G69A	0.121
A43G U52C	0.064
G42U U58C	0.259
G42U U58G	0.192
A44G G54A	0.151
A44U U62A	0.26
A44U U60A	0.239
G42A U70G	0.161
A45C C50U	0.0931

Variant	self-cleavage
A44C G56A	0.152
G42U U53C	0.233
G42U U53A	0.298
A44C G51U	0.114
A44C G51A	0.0817
A45U U58G	0.123
A45U U58A	0.132
G42C A61G	0.178
G42C A61U	0.136
G42C C48A	0.134
A45G A64U	0.176
G42C G68C	0.151
G42C G68A	0.119
G42C G68U	0.138
A45G G56A	0.183
A44C U62G	0.304
G42U A61C	0.193
A43G G51A	0.0738
A43G G51C	0.107
C46G C65U	0.107
A45C U67C	0.128
C46A G51C	0.0397
G42A U60G	0.157
A44U A47G	0.0154

Variant	self-cleavage
A44G U63A	0.207
A43G C48A	0.174
A43G C48U	0.123
A44G C50G	0.164
A45G U67C	0.12
A45C A47U	0.212
A45C A47C	0.198
A43G U63C	0.156
A43G U63G	0.11
A43G U63A	0.134
C46A G57C	0.156
A43G A47G	0.196
A45G A59C	0.151
A43G C50U	0.198
A45G A49U	0.172
A45G A49G	0.177
A43U U67C	0.109
G42C A43U	0.106
A45G A47G	0.101
G42U U67G	0.127
A43G U58C	0.12
A43G U58G	0.212
G42U U62C	0.149
G42U U62A	0.2

Variant	self-cleavage
G42U U62G	0.22
A45G C50G	0.109
A43C U63C	0.157
G42C A59G	0.195
A44C U67A	0.113
G42C G51C	0.227
A44G C66A	0.022
A44G C46U	0.139
A44G C46A	0.184
C46A A61C	0.311
C46A U62A	0.132
G42U G51C	0.392
A43C C48U	0.16
A44C U63A	0.128
A44C U63C	0.172
A43G A44G	0.0966
A43G G69C	0.268
A44G U70C	0.262
A44U U55G	0.0792
C46G G57U	0.167
A45C C46G	0.152
A43G A64G	0.132
A45U G57C	0.15
A43C A44C	0.259

Variant	self-cleavage
A45U U55G	0.0773
A45U U55C	0.0822
A43U G68A	0.0877
A43U G68U	0.223
A44U G57A	0.0753
C46A G54A	0.126
C46A G54C	0.129
A44G A49U	0.0347
A43C G51U	0.0904
A44G G51U	0.175
A44G G51C	0.238
A44G G51A	0.123
A45U C46G	0.241
A45U C46A	0.125
A44U A71G	0.293
A45U U53C	0.161
A45C U60A	0.174
C46G A61C	0.154
C46G G54U	0.119
C46G G54A	0.134
A43G C46A	0.153
A43U A59U	0.204
A43U A59G	0.166
